Test results reported in publication PMC4989220.

Key:
[1] = target: Rab6a GTPase (human (endogenous in VA-13, HepG2-derived)) (UniProt P20340); assay: proximity ligation; Duolink in situ PLA in control VA-13 cells and hepatocytes from control rats; mouse anti-giantin + rabbit anti-Rab6a, or mouse anti-Rab6a + rabbit anti-NMIIA-P-S1943; cells with more than one red spot counted
[2] = target: Rab6a GTPase (rat hepatocytes) (rat (endogenous in primary hepatocytes)) (UniProt Q9WVB1); assay: as above
[3] = target: Rab6a GTPase (rat hepatocytes) (rat (endogenous in primary hepatocytes)) (UniProt Q9WVB1); assay: proximity ligation; Duolink in situ PLA in VA-13 cells treated with 35 mM EtOH for 72 h and hepatocytes from EtOH-fed rats; mouse anti-Rab6a + rabbit anti-NMIIA-P-S1943; cells with more than one red spot counted

Sequence of Rab6a GTPase (rat hepatocytes) (rat (endogenous in primary hepatocytes)) (Q9WVB1 whole entry): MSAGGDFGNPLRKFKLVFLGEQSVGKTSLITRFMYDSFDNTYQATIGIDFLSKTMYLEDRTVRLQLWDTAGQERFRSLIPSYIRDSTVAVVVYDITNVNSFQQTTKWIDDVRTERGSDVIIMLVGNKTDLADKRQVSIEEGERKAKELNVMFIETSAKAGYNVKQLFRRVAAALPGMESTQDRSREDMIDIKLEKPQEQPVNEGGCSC
Sequence of Rab6a GTPase (human (endogenous in VA-13, HepG2-derived)) (P20340 whole entry): as the sequence (Q9WVB1 whole entry) above, with A3T, N202S counted along it
Sequence of non-muscle Myosin IIA heavy chain phosphorylated at S1943 (rat hepatocytes) (Q62812 2-1961): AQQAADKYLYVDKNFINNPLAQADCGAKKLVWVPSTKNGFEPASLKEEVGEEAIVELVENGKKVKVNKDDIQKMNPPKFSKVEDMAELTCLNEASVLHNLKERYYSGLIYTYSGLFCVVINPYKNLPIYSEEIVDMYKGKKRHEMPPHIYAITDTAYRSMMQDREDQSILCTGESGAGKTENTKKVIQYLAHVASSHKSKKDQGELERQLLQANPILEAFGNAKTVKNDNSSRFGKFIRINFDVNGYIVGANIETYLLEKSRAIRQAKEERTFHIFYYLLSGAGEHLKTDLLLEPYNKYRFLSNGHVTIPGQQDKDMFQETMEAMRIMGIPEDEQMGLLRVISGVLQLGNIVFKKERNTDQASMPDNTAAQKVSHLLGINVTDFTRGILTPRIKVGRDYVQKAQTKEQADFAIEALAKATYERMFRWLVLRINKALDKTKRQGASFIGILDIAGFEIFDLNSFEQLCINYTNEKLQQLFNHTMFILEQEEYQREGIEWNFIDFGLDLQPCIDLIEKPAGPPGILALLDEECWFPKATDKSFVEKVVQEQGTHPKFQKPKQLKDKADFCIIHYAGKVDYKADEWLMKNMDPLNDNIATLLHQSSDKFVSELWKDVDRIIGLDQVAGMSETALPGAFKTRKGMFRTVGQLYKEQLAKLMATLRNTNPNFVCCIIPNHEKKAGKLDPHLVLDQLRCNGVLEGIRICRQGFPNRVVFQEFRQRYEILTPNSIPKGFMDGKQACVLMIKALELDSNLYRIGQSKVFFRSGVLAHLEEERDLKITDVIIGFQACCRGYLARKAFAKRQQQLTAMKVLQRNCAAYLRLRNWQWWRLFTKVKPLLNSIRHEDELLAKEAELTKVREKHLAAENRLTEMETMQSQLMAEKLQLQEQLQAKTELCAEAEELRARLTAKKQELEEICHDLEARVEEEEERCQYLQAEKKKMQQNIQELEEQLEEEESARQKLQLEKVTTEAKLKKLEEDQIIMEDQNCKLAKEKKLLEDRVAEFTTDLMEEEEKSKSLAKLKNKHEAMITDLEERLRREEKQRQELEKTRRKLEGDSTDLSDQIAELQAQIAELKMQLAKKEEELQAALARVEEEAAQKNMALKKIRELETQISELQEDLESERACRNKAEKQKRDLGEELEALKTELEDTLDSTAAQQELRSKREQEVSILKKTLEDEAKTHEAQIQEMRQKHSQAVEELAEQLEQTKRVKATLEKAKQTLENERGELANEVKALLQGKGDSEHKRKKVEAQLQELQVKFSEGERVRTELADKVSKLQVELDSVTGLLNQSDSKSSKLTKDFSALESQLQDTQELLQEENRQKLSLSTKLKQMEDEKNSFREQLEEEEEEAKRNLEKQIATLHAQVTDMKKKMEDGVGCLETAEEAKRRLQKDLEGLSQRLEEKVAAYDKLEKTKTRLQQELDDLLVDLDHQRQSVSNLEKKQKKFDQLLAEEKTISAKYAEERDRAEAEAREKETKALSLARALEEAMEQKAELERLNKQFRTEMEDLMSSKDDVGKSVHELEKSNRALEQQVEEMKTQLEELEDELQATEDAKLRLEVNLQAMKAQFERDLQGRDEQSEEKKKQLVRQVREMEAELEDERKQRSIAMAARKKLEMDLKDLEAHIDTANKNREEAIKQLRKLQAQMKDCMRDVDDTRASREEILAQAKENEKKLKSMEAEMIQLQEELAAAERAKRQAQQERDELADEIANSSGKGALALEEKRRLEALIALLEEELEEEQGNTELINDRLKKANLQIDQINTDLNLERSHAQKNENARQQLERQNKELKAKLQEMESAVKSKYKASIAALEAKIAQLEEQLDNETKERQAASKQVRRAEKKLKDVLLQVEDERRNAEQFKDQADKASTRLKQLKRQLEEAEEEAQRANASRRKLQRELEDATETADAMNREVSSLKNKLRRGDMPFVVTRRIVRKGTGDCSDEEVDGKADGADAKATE

giantin, Q14789 1-3259
percent of cells with more than one PLA spot [1]: 78%

giantin (rat hepatocytes) (natural protein)
percent of cells with more than one PLA spot [2]: 83%

non-muscle Myosin IIA heavy chain phosphorylated at S1943 (rat hepatocytes) (from UniProt Q62812 1-1961) (natural protein)
percent of cells with PLA-positive puncta [3]: 86%
